Assay results as given in patent US20260000780A1, “B-LYMPHOCYTE SPECIFIC AMATOXIN ANTIBODY CONJUGATES” (priority 2021, published 2026).

Columns and labels:
[1] = system: Raji cell line (CD37-positive); experiment: FACS binding / antibodies bound per cell (BD Quantibrite PE), Raji; parameters: species or system human
Protocol: (§1) Binding of the anti-CD37 monoclonal antibody chHH1-HDP-LALA-D265C to the CD37-positive B-cell leukemia (B-CLL) cell lines MEC-1 and MEC-2 as well as to the human Burkitt lymphoma cell lines Raji and Ramos and to the human B-cell precursor leukemia cell line Nalm-6, which is known to be CD37-negative, were tested by fluorescence-activated cell sorting (FACS) analysis.
(§2) In order to estimate antibodies bound per cell (ABC) by flow cytometry, BD Quantibrite PE tubes (Becton Dickinson) were used, which were run at the same instrument settings as the assay, so that the FL2 axis can be converted into the number of PE molecules bound per cell. By using known ratios of PE to antibodies, PE molecules per cell can then be converted to the number of antibodies per cell (Iyer et al. 1997).

[2] = system: MEC-1 cell line (CD37-positive); experiment: FACS binding / antibodies bound per cell (BD Quantibrite PE), MEC-1
Protocol: as §1, §2

[3] = system: MEC-2 cell line (CD37-positive); experiment: FACS binding / antibodies bound per cell (BD Quantibrite PE), MEC-2
Protocol: as §1, §2

[4] = system: Ramos cell line (CD37-positive); experiment: FACS binding / antibodies bound per cell (BD Quantibrite PE), Ramos; parameters: species or system human
Protocol: as §1, §2

[5] = system: Nalm-6 cell line (CD37-negative); experiment: FACS binding / antibodies bound per cell (BD Quantibrite PE), Nalm-6; parameters: species or system human
Protocol: as §1, §2

[6] = biological target: T1, CD37 (Homo sapiens, UniProt P11049); experiment: Biacore binding assay (surface-plasmon resonance); details: CD37 construct Ala 113 to Asn 240 with Fc fusion tag, 31.25 nM to 500 nM
T1 construct: A CD37 construct comprising amino acids Ala 113 to Asn 240, expressed in HEK293 cells; Fc fusion tag (Thr 106 to Lys 330); host or cells: HEK293
T1 sequence (P11049 113-240): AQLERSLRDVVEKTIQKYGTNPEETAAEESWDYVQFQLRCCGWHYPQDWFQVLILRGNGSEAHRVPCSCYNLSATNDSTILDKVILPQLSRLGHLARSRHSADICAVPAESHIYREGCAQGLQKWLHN
Protocol: Binding of the monoclonal antibody chHH1-HDP-LALA-D265C to CD37 was confirmed by surface-plasmon resonance (Biacore) interaction analysis. 0.1 μM chHH1-HDP-LALA-D265C was captured using anti-Fab capture (FAB2G) biosensors. Alternatively, biotinylated monoclonal antibody chHH1-HDP-LALA-D265C was captured by streptavidin (SA) sensors. A CD37 construct comprising amino acids Ala 113 to Asn 240, expressed in HEK293 cells with an Fc fusion tag moiety (Thr 106 to Lys 330), was added to the sensor at concentrations of 31.25 nM to 500 nM (1:2 dilution steps), and binding of the CD37 construct was assessed.

[7] = system: Raji-Luc tumor xenograft; experiment: Disseminated Raji-Luc tumor xenograft model; type: in vivo, CB17 Scid mice; details: 3.75 mg/kg (unconjugated antibody); day 89 after treatment
Protocol: Cytotoxic efficacy studies in vivo were performed using various anti-CD37 antibody amatoxin conjugates in a disseminated Raji-Luc tumor xenograft model over 89 days of treatment.
Tumor cell inoculation was done on day-3 by i.v. injection of 2.5×10^6 Raji-Luc cells in CB17 Scid mice. Treatment was performed on day 0 by single dose i.v. injection at maximum tolerable dose (MTD) of 1/16 and MTD of 1/64 doses of cynomolgus MTD, respectively. Readout of the study was body weight, bioluminescence and survival. Results are shown in FIG. 10 (body weight), FIG. 11 (bioluminescence) and FIG. 12 (survival) at day 89 after treatment. All groups treated with conjugate gained body weight as normal, in contrast to the control group.

[8] = system: cynomolgus CD37; experiment: Cross reactivity with cynomolgus PBMCs by flow cytometry; type: binding
Protocol: Cross reactivity of the anti-CD37 chHH1-HDP-LALA-D265C with cynomolgus peripheral blood mononuclear cells (PBMCs) was assessed by flow cytometry. As control, human PBMCs were stained using the same set of antibodies. FACS analysis was done according to a standard protocol. In brief: PBMCs were resuspend in 300 μL staining medium (3.3×10^5 cells/50 μl staining medium). 50 μl cell suspension for each sample (=3.3×10^5 cells per sample) were piptted into one well of an U-well plate. 50 μl of pre-diluted isotype and antibody solutions were added to the samples in each well and incubated for 30 min on ice, followed by the addition of 100 μl ice-cold PBS and centrifugation at 4° C., 300 g, 6 min. The resulting supernatant was discarded and cells were washed with 200 μl ice-cold PBS, pH 7.4 followed by centrifugation at 4° C., 300 g, 6 min. The wash step was repeated once. The supernatant was discarded and cells resuspended in 100 μl of the secondary antibody solution. For the untreated sample (control) 100 μl staining medium were used. Cells were incubated for 30 min on ice protected from light. 100 μl ice-cold PBS were added and cells were centrifuge at 4° C., 300 g, 6 min. The supernatant was discarded and cells were washed twice with 200 μl ice-cold PBS, pH 7.4 and centrifuged at 4° C., 300 g, 6 min. […]

B1: chHH1-HDP-LALA-D265C: Unconjugated anti-CD37 antibody, heavy chain SEQ ID No. 11 (234Ala, 235Ala, 265Cys), light chain SEQ ID No. 12 (antibody)
heavy: EIQLQQSGPELVKPGASVKVSCKASGYSFTDYNMYWVKQSHGKSLEWIGYIDPYNGDTTYNQKFKGKATLTVDKSSSTAFIHLNSLTSEDSAVYYCARSPYGHYAMDYWGQGTSVTVSSASTKGPSVFPLAPSSKSTSGGTAALGCLVKDYFPEPVTVSWNSGALTSGVHTFPAVLQSSGLYSLSSVVTVPSSSLGTQTYICNVNHKPSNTKVDKKVEPKSCDKTHTCPPCPAPEAAGGPSVFLFPPKPKDTLMISRTPEVTCVVVCVSHEDPEVKFNWYVDGVEVHNAKTKPREEQYNSTYRVVSVLTVLHQDWLNGKEYKCKVSNKALPAPIEKTISKAKGQPREPQVYTLPPSREEMTKNQVSLTCLVKGFYPSDIAVEWESNGQPENNYKTTPPVLDSDGSFFLYSKLTVDKSRWQQGNVFSCSVMHEALHNHYTQKSLSLSPGK
light: DIVMTQSHKLLSTSVGDRVSITCKASQDVSTAVDWYQQKPGQSPKLLINWASTRHTGVPDRFTGSGSGTDYTLTISSMQAEDLALYYCRQHYSTPFTFGSGTKLEIKRTVAAPSVFIFPPSDEQLKSGTASVVCLLNNFYPREAKVQWKVDNALQSGNSQESVTEQDSKDSTYSLSSTLTLSKADYEKHKVYACEVTHQGLSSPVTKSFNRGEC
modifications: Heavy chain of chHH1-HDP-LALA-D265C comprising amino acid substitutions L235A, L235A and D265C; Light chain of chHH1-HDP, chHH1-HDP-265C, chHH1-HDP-LALA-D265C, respectively
- binding by FACS analysis [1]: bind strongly
- antibodies bound per cell (ABC) value ([1]; flow cytometry): 32,500
- binding by FACS analysis [2]: bind strongly
- antibodies bound per cell (ABC) value ([2]; flow cytometry): 33,004
- binding by FACS analysis [3]: bind strongly
- antibodies bound per cell (ABC) value ([3]; flow cytometry): 137,200
- binding by FACS analysis [4]: bind strongly
- antibodies bound per cell (ABC) value ([4]; flow cytometry): 31,500
- binding by FACS analysis ([5]; Nalm-6 (CD37-negative)): No binding was detected
- antibodies bound per cell (ABC) value ([5]; Nalm-6, flow cytometry): 42
- binding to CD37 by surface-plasmon resonance (Biacore) [6]: confirmed
- Alive animals [7]: 0/10
- specific binding to cynomolgus CD37 [8]: does not exhibit specific binding
